Test: soluble on expression in E. coli; label from the status in PepcDB or PDB records
With “MAHHHHHHMPCNCRQGTGTHDHLQDGFARGGMFGVGSPLNAQVDVDLLQLWNSRNSVSEAARIFDPAKGDNDQPICSDADPELLLLIPLKEVCRIRSVSILGTNDDFAPSQVKLFCNPTGVVGFDSVRRLQHQEEIQLAQVSADDRIAYRLNPAKFSSAGCMGMLFEHSFGDDETHILRIELFGESTGRPVYQQTATNVVYEAMANPTDHNVGEELKKTFTIF” the “soluble on expression in E. coli” value was “soluble”. In the case of “MTESFAELFEASQANLAKLKPGSIVTGTVVEVRGDVVVINAGLKSEGIVPIEQFRNDAGEIDVGVGDQVKVALDSIENGFGETVLSREKAKRAMVWDELEEALEKNETITGRISGKVKGGFTVDIKDVRAFLPGSLVDVRPVRDPAYLEGKELEFKLIKLDRKRNNVVVSRRAVVESEHSEEREQLMDKLQEGAILKGVVKNLTDYGAFVDLGGIDGLLHITDMAWKRVRHPSEVVNVGDELDVRVLKFDRERNRVSLGLKQLGEDPWDNIARRYPANSRVFGKVSNVTDYGAFVEIEPGVEGLVHVSEMDWTNKNVNPSKVVQVGDEVEVMVLDVDEERRRISLGMKQVAANPWETFAATHKKNDKVSGQIKSITDFGIFIGLDGGIDGLVHLSDISWNTTGEDVVRNYKKGDTLEAVVLAVDPERERISLGVKQLEQDPFGQYMASNPKGSKVEGVVREVDAKGATIDLADGIEGYVAARDIANERVDDATQHLKVGDKIEAKFVGMDRKGRTLQLSIKAKDDAEMRETLEDYQSASASGGMTQLGALLRAQLNNNKSELEHHHHHH”, the “soluble on expression in E. coli” value is reported as “not soluble”. With “MYCQRLRQLRKAHKLTMEQLAEKIGIAKSSYGGYEAESKKPPLDKLVILARLYDVSVDYILGLTDDPDPKVERKNLKEFLEKPDIHWDGYKLTPEILDPIRKILKLVTANNN” the “soluble on expression in E. coli” value was “not soluble”. With “MRKLKMMLCVMMLPLVVVGCTSKQSVSQCVKPPPPPAWIMQPPPDWQTPLNGIISPSGNDWLEHHHHHH” the “soluble on expression in E. coli” value was “not soluble”. With “MYIPKHFESMELSRYKLSKKPPLGTLFSSKASRQGFFGWRTSSNKDDPDFGMCASHIPFVFVEFDNGEHKLIAHLARKNKHVEMLERVQKCLVVFQSVDSYISPAWFPMKKKTHKFVPTWDFAAVHVYGTPRIIRDDKDWLINMLSTLTDQEEEKRPEGENVRSKVERF” the “soluble on expression in E. coli” value was “soluble”. For “MSLLDIIFPPNNNDDDFYGQHFSLIDSIIVKVAQDSNLSQSLRVYQYLYSWRLFGCMVAVVNNNKTLELGDKRGAIEALYEFITRFRIENPTGDVERKVKLKILEIYMIILNLLKSFENNQDQWFLKTNSYKETTTTRRRSIVSLNDLKLEYLEWLKNLDEDVSMFTEGHHHHHH”, the “soluble on expression in E. coli” value was “not soluble”. In the case of “MGSDKIHHHHHHMSKIGETPLDMGLKDAIIGIFIWNKEKGIFEPFENRLRKKARALLEYYTDLANDELKPYVISKTIIDNVVDEIKDKTLIPLPNEPLRVAFPNCTLEWKISHGRYVPSFVLAEERTPEHFAFHYIPHKIHLEELVKINEEVLSARDIPIDLIEDLARRLCPKSLEVFKQWANEKWVTLFEIIGYTLFPKIEFRKAFMILGPRGTGKSTFINLIKKLLGRGNVVNIPLHILFGDKNRFVLAELYHKLVNAVSETKEYNLDDMDTLKVLTGGDRITADVKFKDPITFTPYAKLVIASNKPPTIRDKNDMAFWHRWLIIEFPNQFEDNTAWGDKTFTEDELEGILTVSILAFSRVLLHGKFDFEQTEEEVRGIWLSTIDYVYKFVKEKLKHGEIMITKNADDYVRVKELYRMYLEYCSTNGYNATTYKGFVRRLRDYFNLTVVMKNVEGKRFRAVVGIKINTVQTNETTGGDYGEFLNYILKNNHMIKEFADLVRDFGSTEKANVFIDFCTKKNMCFSRGIDAWEISIQPRGFSFL”, the “soluble on expression in E. coli” value is reported as “not soluble”. For “MSLDTNNALARFFDSSGYNANVSNPSAYQGQSANYYTGGSLFVRTPIVDAQLVSVTVPSISAGCSGIDMFMGGFSHVSSDQLVKVGKAIIHNAPPFIVNLALQTWAPQLKQNLDNLQAIADKYLNQSVNSCEAAQAAIGGLAAFAAPATKKHVCATLGTQNNAFSDWVQAQHECGAGGKAAGQLANAKNDPALKDITKTNHNVVWSAIMNNAFLSADKHLAQFMMSLSGTYVYDANGNPRYYPSLLTDNNNLVNVLLEGGKADIYQCRNTDPKACITITKPNNLSISQANGIQSQISKQLESILRHIATDQKLTDKQKSFLELTQTPVLKFFMDDLSANQTPDINSYSRMIAVELLNQYLTNMLSIASQSLANTNNSVEDIALITRDIDNAKRFTTGLADKAIETLNQRNQLIESQRKTAQRSQKDIGITTKPTQAYGNEGHHHHHH”, the “soluble on expression in E. coli” value was “not soluble”.

Reference: the DeepSol protein solubility set
